# Measurements published in paper PMC3742642 (Structure (London, England : 1993), 2013).
# B1: bacteriophage ϕ6 capsid protein P1, full length, C-terminal His6-tag (natural protein, UniProt P11126 1-769, looked up)
# chain: MFNLKVKDLNGSARGLTQAFAIGELKNQLSVGALQLPLQFTRTFSASMTSELLWEVGKGNIDPVMYARLFFQYAQAGGALSVDELVNQFTEYHQSTACNPEIWRKLTAYITGSSNRAIKADAVGKVPPTAILEQLRTLAPSEHELFHHITTDFVCHVLSPLGFILPDAAYVYRVGRTATYPNFYALVDCVRASDLRRMLTALSSVDSKMLQATFKAKGALAPALISQHLANAATTAFERSRGNFDANAVVSSVLTILGRLWSPSTPKELDPSARLRNTNGIDQLRSNLALFIAYQDMVKQRGRAEVIFSDEELSSTIIPWFIEAMSEVSPFKLRPINETTSYIGQTSAIDHMGQPSHVVVYEDWQFAKEITAFTPVKLANNSNQRFLDVEPGISDRMSATLAPIGNTFAVSAFVKNRTAVYEAVSQRGTVNSNGAEMTLGFPSVVERDYALDRDPMVAIAALRTGIVDESLEARASNDLKRSMFNYYAAVMHYAVAHNPEVVVSEHQGVAAEQGSLYLVWNVRTELRIPVGYNAIEGGSIRTPEPLEAIAYNKPIQPSEVLQAKVLDLANHTTSIHIWPWHEASTEFAYEDAYSVTIRNKRYTAEVKEFELLGLGQRRERVRILKPTVAHAIIQMWYSWFVEDDRTLAAARRTSRDDAEKLAIDGRRMQNAVTLLRKIEMIGTTGIGASAVHLAQSRIVDQMAGRGLIDDSSDLHVGINRHRIRIWAGLAVLQMMGLLSRSEAEALTKVLGDSNALGMVVATTDIDPSL
# B2: bacteriophage ϕ6 capsid protein P1, wild type, in P1247 procapsids (natural protein)
# chain: FNLKVKDLNGSARGLTQAFAIGELKNQLSVGALQLPLQFTRTFSASMTSELLWEVGKGNIDPVMYARLFFQYAQAGGALSVDELVNQFTEYHQSTACNPEIWRKLTAYITGSSNRAIKADAVGKVPPTAILEQLRTLAPSEHELFHHITTDFVCHVLSPLGFILPDAAYVYRVGRTATYPNFYALVDCVRASDLRRMLTALSSVDSKMLQATFKAKGALAPALISQHLANAATTAFERSRGNFDANAVVSSVLTILGRLWSPSTPKELDPSARLRNTNGIDQLRSNLALFIAYQDMVKQRGRAEVIFSDEELSSTIIPWFIEAMSEVSPFKLRPINETTSYIGQTSAIDHMGQPSHVVVYEDWQFAKEITAFTPVKLANNSNQRFLDVEPGISDRMSATLAPIGNTFAVSAFVKNRTAVYEAVSQRGTVNSNGAEMTLGFPSVVERDYALDRDPMVAIAALRTGIVDESLEARASNDLKRSMFNYYAAVMHYAVAHNPEVVVSEHQGVAAEQGSLYLVWNVRTELRIPVGYNAIEGGSIRTPEPLEAIAYNKPIQPSEVLQAKVLDLANHTTSIHIWPWHEASTEFAYEDAYSVTIRNKRYTAEVKEFELLGLGQRRERVRILKPTVAHAIIQMWYSWFVEDDRTLAAARRTSRDDAEKLAIDGRRMQNAVTLLRKIEMIGTTGIGASAVHLAQSRIVDQMAGRGLIDDSSDLHVGINRHRIRIWAGLAVLQMMGLLSRSEAEALTKVLGDSNALGMVVATTDIDPSL
# Experiments:
# [1] = molecular target: the molecule itself; test: crystal structure
# [2] = molecular target: the molecule itself; test: SEC
# [3] = molecular target: the molecule itself; test: cryo-EM structure
Protein,stoichiometry N [1],stoichiometry N [2],stoichiometry N [3]
B1,5,2,–
B2,–,–,120
